The term EC50 denotes the concentration giving half of the maximal effect. The term EC50 (read off the curve) denotes the concentration needed to bring the measured effect to its halfway point. Usually Kd stands for a measure of binding affinity in units of concentration. A high value points to a looser complex.

Assay [1] deals with T1, His-tagged mouse PD-L1 protein (mouse, UniProt Q9EP73 19-238, limits assumed).
T1 construct: also called mPD-L1-His; mPD-L1; not shown: His tag
Put plainly: plate assay: His-tagged PD-L1 on Ni-NTA 96-well plate, PD-1-hFc, HRP anti-human IgG Fc secondary, OD450 given as fold ratio. As for the experimental part:
(§1) Histidine (His)-tagged canine or mPD-L1 protein was immobilized on the nickel-nitriloacetic acid (Ni-NTA) 96-well plate and horseradish peroxidase (HRP)-conjugated anti-human IgG Fc-specific secondary with mPD-1-hFc or cPD-1-hFc protein was added. OD450 was measured to quantify the amount of bound PD-1 protein.

Assay [2] concerns the target T1, His-tagged mouse PD-L1 protein. Nature of the assay: plate assay: His-tagged PD-L1 on Ni-NTA 96-well plate, antibody, HRP anti-canine IgG secondary, OD450. As for the experimental part: 12C and 3C. with human PD-L1 (hPD-L1), mPD-L1, and cPD-L1 proteins. His-tagged human PD-L1, mPD-L1, or cPD-L1 protein was immobilized on the Ni-NTA 96-well plate, and anti-cPD-L1 Abs. 12C or 3C. with HRP-conjugated anti-canine IgG-specific secondary was added. OD450 was measured to quantify the amount of bound PD-L1 antibodies (Ab=antibody).

The target is the same in assay [3]. Nature of the assay: blocking plate assay: mPD-L1-His on Ni-NTA plate, cPD-1-hFc or mPD-1-hFc, HRP anti-human IgG Fc secondary; 12C concentration not given. As for the experimental part:
as §1

Assay [4] concerns the target T2, canine PD-L1 (Flag-cPD-L1) expressed on BT549 cells (canine, UniProt E2RKZ5 19-289).
T2 construct: Flag-tagged (pGIPZ-shPD-L1/Flag-cPD-L1); Endogenous human PD-L1 was knocked down in the BT549 cells; also called membrane-localized cPD-L1 protein; BT549^cPD-L1 cells
T2 sequence: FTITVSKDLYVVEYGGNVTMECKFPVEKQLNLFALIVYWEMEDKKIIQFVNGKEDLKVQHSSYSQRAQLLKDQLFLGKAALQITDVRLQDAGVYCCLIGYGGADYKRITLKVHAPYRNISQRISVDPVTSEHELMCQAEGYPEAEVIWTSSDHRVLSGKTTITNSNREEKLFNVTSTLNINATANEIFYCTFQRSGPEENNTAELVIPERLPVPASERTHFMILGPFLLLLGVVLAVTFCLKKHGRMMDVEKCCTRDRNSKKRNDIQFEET
Nature of the assay: cPD-1/cPD-L1 blockade assay on BT549^cPD-L1 cells; blocked ligand cPD-1-hFc; green fluorescence by IncuCyte S3. As for the experimental part: (§2) To measure PD-1 protein on the cells. […] cells were seeded per well in 96-well plates. The plates were then incubated with cIgG control (Rockland Immunochemicals. Pottstown, PA). 12C10E4 antibody or cPD-L1 A12C10E4 antibody, cPD-1-hFc protein (human Fc protein conjugated: Sino Biological US. Wayne. PA), and/or anti-human Alexa Fluor 488 dye conjugate (ThermoFisher Scientific. Waltham. MA). Every 3 hours green fluorescent signal was measured and quantified by IncuCyte S3 (Sartorius. Goettingen. Germany) (FIG. 5B). The image analysis was performed according to the manufacturer's protocol.

The target of assay [5] is T2, canine PD-L1 (Flag-cPD-L1) expressed on …. Put plainly: blockade of cPD-1-hFc binding to cPD-L1, bound cPD-1 quantified by green fluorescence on IncuCyte S3 (FIG. 5E). As for the experimental part:
as §2

For assay [6], the target named is T3, cPD-L1 on MB49^cPD-L1 cells.
T3 construct: also called canine PD-L1 (Flag-cPD-L1) on mouse PD-L1 knockout MB49 cells
T3 chain: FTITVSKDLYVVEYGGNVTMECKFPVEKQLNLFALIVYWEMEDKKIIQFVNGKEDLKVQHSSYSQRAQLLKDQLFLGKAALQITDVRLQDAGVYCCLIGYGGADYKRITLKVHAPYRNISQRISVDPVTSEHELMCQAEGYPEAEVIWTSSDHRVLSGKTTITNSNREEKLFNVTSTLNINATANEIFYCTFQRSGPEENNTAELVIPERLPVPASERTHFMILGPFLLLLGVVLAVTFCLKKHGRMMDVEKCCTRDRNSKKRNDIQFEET
Put plainly: flow cytometry of MB49^cPD-L1 cells. As for the experimental part: (§3) For flow cytometry analysis, MB49 or BT549 cells were washed twice with ice-cold cell staining buffer (Biolegend, San Diego, CA) and stained with cIgG control, or cPD-L1 12C10E4 cIgG or cPD-L1 A12C10E4 cIgG for 1 hour at 4° C. After three washes with staining buffer, cell samples were stained with Alexa Fluor 488-conjugated anti-canine IgG specific secondary antibody for 30 minutes at 4° C. Cell samples were loaded on BD LSRFortessa (BD, Franklin Lakes, NJ) for analysis. Data analysis was performed on FlowJo v9 software (BD). Every hour, green fluorescent signal was measured and quantified by IncuCyte S3 (Sartorius. Goettingen, Germany). The Image analysis was performed according to the manufacturer's protocol.
(In general: In flow cytometry, cells or beads pass a laser one at a time.)

The target in assay [7] is T4, His-tagged canine PD-L1 protein (6X His tagged extracellular domain of cPD-L1) (canine, UniProt E2RKZ5 19-236).
T4 construct: it is treated here as the same construct; also called cPD-L1-His; canine PD-L1-His
T4 sequence: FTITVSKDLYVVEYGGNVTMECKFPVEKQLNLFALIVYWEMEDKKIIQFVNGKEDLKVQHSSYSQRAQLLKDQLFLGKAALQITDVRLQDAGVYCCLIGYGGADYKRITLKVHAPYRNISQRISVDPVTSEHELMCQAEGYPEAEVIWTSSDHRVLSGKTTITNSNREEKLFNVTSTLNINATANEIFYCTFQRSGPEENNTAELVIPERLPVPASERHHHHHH
Nature of the assay: cell-free ELISA-based binding assay on His-tagged extracellular domain of cPD-L1, bound antibody as OD450. For orientation: An ELISA detects its analyte on a solid surface through an enzyme-linked reagent.

The target in assay [8] is T4, His-tagged canine PD-L1 protein (6X His …). Nature of the assay: Octet BLI (RED384): His-tagged cPD-L1 loaded on an NTA biosensor at 200 nM, antibody at 50, 100, 200 nmol/L. As for the experimental part: The binding affinity (KD) of the chimeric cPD-L1/cPD-L1 antibody (12C10E4) for canine PD-L1 was determined by Octet Biolayer interferometry (BLI) using the Octet RED384 system (Sartorius. Bohemia. NY). Briefly. His-tagged cPD-L1 protein was loaded on the Octet NTA biosensor at a concentration of 200 nM. The association step was performed by submerging the sensors in three concentrations of the chimeric cPD-L1/cPD-L1 antibody (12C10E4) (50, 100, 200 nmol/L) in the kinetic buffer. Dissociation was performed and monitored in fresh kinetic buffer. Data were analyzed with Octet Analysis HT software (Sartorius. Bohemia. NY), […].

The target in the next assay is T5, mPD-L1 on MB49 cells (Mus musculus, UniProt Q9EP73).
T5 construct: endogenous, membrane-located, on MB49 parental mouse bladder cancer cells; also called endogenous mouse PD-L1 on MB49 parental cells
Put plainly: flow cytometry of MB49 parental cells, which stain for mPD-L1 in the left panel. As for the experimental part: as §3

Assay [9] deals with T4, His-tagged canine PD-L1 protein (6X His …). Put plainly: cell-free blockade assay: canine PD-L1-His on Ni-NTA plate; blocked ligand PD-1-Fc (cPD-1-hFc), HRP anti-human IgG Fc secondary, OD450. As for the experimental part: For the […] assays. Pierce Ni-NTA coated 96-well plates (ThermoFisher Scientific. Waltham. MA) were coated with canine PD-L1-His proteins and PD-1-Fc proteins (human Fc-protein conjugated) (SinoBiological US. Wayne. PA), and anti-human IgG Fc specific horseradish peroxidase (HRP)-conjugated secondary antibodies (SouthernBiotech. Birmingham. AL) were added, followed by the addition of anti-canine PD-L1, 12C10E4 or cPD-L1 A12C10E4 antibodies. The bound PD-1-Fc protein was quantified by measuring OD450 value with a Synergy LX multi-mode reader.

T1 sequence (Q9EP73 19-238 limits assumed): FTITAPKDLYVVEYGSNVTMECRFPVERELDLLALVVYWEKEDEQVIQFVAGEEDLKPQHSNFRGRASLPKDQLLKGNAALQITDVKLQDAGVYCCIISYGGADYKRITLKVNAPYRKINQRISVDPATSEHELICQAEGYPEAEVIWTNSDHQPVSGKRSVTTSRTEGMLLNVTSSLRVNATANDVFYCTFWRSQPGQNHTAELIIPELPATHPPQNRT
T5 sequence (Q9EP73 19-290 limits assumed): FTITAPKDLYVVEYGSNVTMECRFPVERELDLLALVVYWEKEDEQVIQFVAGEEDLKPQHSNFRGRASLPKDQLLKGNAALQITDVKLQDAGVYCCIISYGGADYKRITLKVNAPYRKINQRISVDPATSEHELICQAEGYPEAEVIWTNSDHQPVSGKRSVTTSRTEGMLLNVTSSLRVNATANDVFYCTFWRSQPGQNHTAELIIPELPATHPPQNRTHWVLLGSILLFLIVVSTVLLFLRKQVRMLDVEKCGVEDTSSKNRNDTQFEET

B1: mPD-1-hFc protein (Fc fusion, mouse, UniProt Q02242 25-167, looked up)
chain: LEVPNGPWRSLTFYPAWLTVSEGANATFTCSLSNWSEDLMLNWNRLSPSNQTEKQAAFCNGLSQPVQDARFQIIQLPNRHDFHMNILDTRRNDSGIYLCGAISLHPKAKIEESPGAELVVTERILETSTRYPSPSPKPEGRFQ
notes: also called mouse PD-1; not shown: human Fc
Consider B1, for which the binding result in [1] is “binds”.

B2: cPD-L1 3C chimeric antibody clone (3C8D3 variable domains, canine constant domains) (antibody, V domains shown)
VH: EVQLQQSGPELVKPGASVKMSCKASGYTFTDYVLHWVRQTNGKSLEWIGEINPSNGDTYYNQKFKGKATLTVDTSSSTAYMQLTTLTSEDSAVYYCARSDYSNYVGFAYWGQGTLVTVSA
VL: DIVMTQSHKFMSTSVGDRVSITCKVSQDVGTAVAWYQQKPGQCPKRLIYWTSTRHTGVPDRFTGSGSGTDFTLTISNVQSEDLVDYFCQQYSSYPLTFGGGTKLELKR
notes: also called cPD-L1 3C8D3
As for B2, the binding result in assay [2] was “no binding”.

B3: murine monoclonal antibody cPD-L1 12C10E4 from the hybridoma (antibody, mouse IgG1, V domains shown)
VH: QVQLKQSGPGLVQPSQSLSITCTISGFSLTSFGVHWVRQSPGKGLEWLGVIWSGGSTDYNAAFTSRLSINKDNSKSQVFFKMNSLQADDTAIYYCARGGGPDWYFDVWGTGTTVTVSS
VL: DIVLTQSPASLAVSLGQRATISCRASESVEYYGTSLMQWYQQKPGQPPKLLIFAASNVKSGVPARFSGSGSGTDFSLNIHPVEEDDIAMYFCQQSGKVPHTFGGGTKLEIK
notes: Hybridoma antibody from A/J mice immunized with the cPD-L1 extracellular domain-human Fc; also called mAb 12C; murine 12C antibody
Turning to B3, in assay [3], the binding result is recorded as “no binding”.

B4: cPD-L1 12C10E4 chimeric antibody (mouse variable domains, canine IgG2 / canine kappa constant domains) (antibody)
heavy: QVQLKQSGPGLVQPSQSLSITCTISGFSLTSFGVHWVRQSPGKGLEWLGVIWSGGSTDYNAAFTSRLSINKDNSKSQVFFKMNSLQADDTAIYYCARGGGPDWYFDVWGTGTTVTVSSASTTAPSVFPLAPSCGSTSGSTVALACLVSGYFPEPVTVSWNSGSLTSGVHTFPSVLQSSGLYSLSSMVTVPSSRWPSETFTCNVAHPASKTKVDKPVPKRENGRVPRPPDCPKCPAPEMLGGPSVFIFPPKPKDTLLIARTPEVTCVVVDLDPEDPEVQISWFVDGKQMQTAKTQPREEQFNGTYRVVSVLPIGHQDWLKGKQFTCKVNNKALPSPIERTISKARGQAHQPSVYVLPPSREELSKNTVSLTCLIKDFFPPDIDVEWQSNGQQEPESKYRTTPPQLDEDGSYFLYSKLSVDKSRWQRGDTFICAVMHEALHNHYTQKSLSHSPGK
light: DIVLTQSPASLAVSLGQRATISCRASESVEYYGTSLMQWYQQKPGQPPKLLIFAASNVKSGVPARFSGSGSGTDFSLNIHPVEEDDIAMYFCQQSGKVPHTFGGGTKLEIKRSMEIKRTDAQPAVYLFQPSPDQLHTGSASVVCLLNSFYPKDINVKWKVDGVIQDTGIQESVTEQDKDSTYSLSSTLTMSSTEYLSHELYSCEITHKSLPSTLIKSFQRSECQRVD
notes: Expressed in ExpiCHO-S cells from pTRIOZ-cIgG2-12C10E4; also called 12C chimeric antibody; mAb 12C
As for B4, the “IC50 (read off the curve)” value in [4] was approximately 0.06 µg/mL; in assay [9], approximately 0.05 µg/mL. Moreover, the binding result in [2] is on record as “no binding”; in assay [6], “binds”; with mPD-L1 on MB49 cells, “no binding”. This molecule also came in with a concentration giving a half-maximal response (EC50) in assay [5] of 0.419 µg/mL. The “EC50 (read off the curve)” value in assay [7] is approximately 0.2 µg/mL. In addition, in assay [8], binding was characterised by a dissociation constant (Kd) of 8.6 nM.

B5: cPD-L1 A12C10E4 chimeric antibody (antibody)
heavy: QVQLKQSGPGLVQPSQSLSITCTISGFSLTSFGVHWVRQSPGKGLEWLGVIWSGGSTDYNAAFTSRLSINKDNSKSQVFFKMNSLQADDTAIYYCARGGGPDWYFDVWGTGTTVTVSSASTTAPSVFPLAPSCGSTSGSTVALACLVSGYFPEPVTVSWNSGSLTSGVHTFPSVLQSSGLYSLSSMVTVPSSRWPSETFTCNVAHPASKTKVDKPVPKRENGRVPRPPDCPKCPAPEMLGGPSVFIFPPKPKDTLLIARTPEVTCVVVDLDPEDPEVQISWFVDGKQMQTAKTQPREEQFNGTYRVVSVLPIGHQDWLKGKQFTCKVNNKALPSPIERTISKARGQAHQPSVYVLPPSREELSKNTVSLTCLIKDFFPPDIDVEWQSNGQQEPESKYRTTPPQLDEDGSYFLYSKLSVDKSRWQRGDTFICAVMHEALHNHYTQKSLSHSPGK
light: DIVLTQSPASLAVSLGQRATISCRASESVEYYGTSLMQWYQQKPGQPPKLLIFAASNVKSGVPARFSGSGSGTDFSLNIHPVEEDDIAMYFCQQSGKVPHTFGGGTKLEIKRSMADAQPAVYLFQPSPDQLHTGSASVVCLLNSFYPKDINVKWKVDGVIQDTGIQESVTEQDKDSTYSLSSTLTMSSTEYLSHELYSCEITHKSLPSTLIKSFQRSECQRVD
notes: also called mAb A12C; cPD-L1 A12C10E4 cIgG
B5: the “EC50 (read off the curve)” value in assay [7] is approximately 0.2 µg/mL. In addition, the “IC50 (read off the curve)” value in assay [9] is approximately 0.05 µg/mL.
